Assay results taken from paper PMC3522573 (Oncogene, 2012).

Tests used:
Assay in all cases: two-hybrid
Gal4(DBD)-Neh6^ΔDSAPGS = biological target: T1, Gal4(DBD)-Neh6^ΔDSAPGS (mouse, UniProt Q60795 300-380, Δ373-378 (called ΔDSAPGS))
T1 sequence (looked up): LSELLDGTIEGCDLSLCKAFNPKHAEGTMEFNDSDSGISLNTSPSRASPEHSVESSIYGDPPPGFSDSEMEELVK

Gal4(DBD)-Neh6 = biological target: T2, Gal4(DBD)-Neh6 (mouse, UniProt Q60795 300-380)
T2 sequence (looked up): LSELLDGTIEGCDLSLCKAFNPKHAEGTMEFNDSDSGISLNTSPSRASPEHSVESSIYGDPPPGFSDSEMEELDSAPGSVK

Gal4(DBD)-Neh6^ΔSDSGIS = biological target: T3, Gal4(DBD)-Neh6^ΔSDSGIS (mouse, UniProt Q60795 300-380, Δ333-338 (called ΔSDSGIS))
T3 sequence (looked up): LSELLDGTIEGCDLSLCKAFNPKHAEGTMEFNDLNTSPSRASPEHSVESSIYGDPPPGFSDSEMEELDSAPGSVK

B1: Gal4(AD)-WD40 (domain or fragment, mouse, UniProt Q3ULA2 303-581, looked up)
chain: SKGVYCLQYDDQKIVSGLRDNTIKIWDKSTLECKRILTGHTGSVLCLQYDERVIITGSSDSTVRVWDVNAGEMLNTLIHHCEAVLHLRFNNGMMVTCSKDRSIAVWDMASPTDITLRRVLVGHRAAVNVVDFDDKYIVSASGDRTIKVWNTSTCEFVRTLNGHKRGIACLQYRDRLVVSGSSDNTIRLWDIECGACLRVLEGHEELVRCIRFDNKRIVSGAYDGKIKVWDLMAALDPRAPAGTLCLRTLVEHSGRVFRLQFDEFQIVSSSHDDTILIWD
fold increase in Gal4-driven luciferase activity with GSK-3β^Δ9 co-expressed (Gal4(DBD)-Neh6^ΔDSAPGS): 3.1 fold
fold increase in Gal4-driven luciferase activity over either fusion alone (Gal4(DBD)-Neh6): ~3.2 fold
fold increase in Gal4-driven luciferase activity with GSK-3β^Δ9 co-expressed (Gal4(DBD)-Neh6): 4 fold
fold increase in Gal4-driven luciferase activity over either fusion alone (Gal4(DBD)-Neh6^ΔSDSGIS): 1.5 fold
